# Measured values published in the supplement of paper PMC10567573.
# B1: KLHDC10 (parent)
# chain: FGGTGIPFGESNGNGVHVCNVKYK
# Variants of: B1
# Assay: protein stability index of a GFP-peptide fusion (GPS, HEK-293T) (PSI 1-6); higher = more stable
# Conditions: c terminus: a fixed tail appended
# 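Also: lentivirally expressed fusions sorted by FACS into six bins by GFP to DsRed ratio, PSI derived from sequencing read proportions per bin multiplied by bin number.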
row,Variant,protein stability index
1,N12A,1.85
2,N12E,2.11
3,N12Y,2.59
4,N12M,1.9
5,N12G,1.62
6,N12I,1.58
7,N12H,2.22
8,N12V,1.6
9,N12T,1.97
10,N12W,1.74
11,N12C,1.63
12,N12S,1.74
13,N12D,2.33
14,N12Q,2.06
15,N12K,1.82
16,C19H,1.46
17,C19W,1.71
18,C19V,2.07
19,C19E,2.76
20,C19L,1.97
21,C19D,2.62
22,C19A,2.31
23,C19T,2.01
24,C19G,2.06

row,Variant,protein stability index
1,C19S,2.01
2,C19M,2.15
3,C19K,2.08
4,C19I,1.75
5,C19P,2.21
6,C19N,2.38
7,N20H,1.48
8,N20M,1.38
9,N20K,2.44
10,N20Y,2.23
11,N20P,1.52
12,N20F,2.06
13,N20G,1.66
14,N20T,1.75
15,N20E,1.92
16,N20C,1.11
17,N20I,1.82
18,N20V,1.55
19,N20D,1.98
20,N20S,1.65
21,N20L,1.36
22,G9V,2.57
23,G9M,1.18
24,G9H,2.72

row,Variant,protein stability index
1,G9L,1.39
2,G9K,1.79
3,G9R,1.76
4,G9C,1.41
5,G9D,3.04
6,G9Y,2.15
7,G9A,1.85
8,G9W,2.89
9,G9T,1.66
10,G9P,2.44
11,G9I,2.16
12,G9N,2.29
13,V21D,2.14
14,V21H,1.7
15,V21N,2.54
16,V21M,1.95
17,V21E,2.31
18,V21S,2.38
19,V21G,1.78
20,V21W,1.86
21,V21A,1.74
22,V21T,2.17
23,I6W,2.27
24,I6V,2.16

row,Variant,protein stability index
1,I6M,2.07
2,I6K,2.2
3,I6D,3.29
4,I6Q,2.27
5,I6A,2.1
6,I6F,2.3
7,I6P,1.94
8,I6L,2.39
9,I6E,3.02
10,I6G,1.96
11,I6H,2.08
12,E10A,2.94
13,E10H,1.99
14,E10T,1.62
15,E10G,1.68
16,E10F,1.7
17,E10V,2.49
18,E10R,2.46
19,E10C,1.51
20,E10N,3.06
21,E10S,3.04
22,E10W,2.59
23,E10M,2.26
24,E10I,2.39

row,Variant,protein stability index
1,G13Q,2.38
2,G13F,1.9
3,G13H,1.77
4,G13M,2.73
5,G13R,2.36
6,G13A,2.02
7,G13I,1.38
8,G13V,2.17
9,G13E,2.28
10,G13N,1.7
11,G13P,1.91
12,G13S,1.92
13,G13Y,2.09
14,G13K,2.06
15,G13L,2.05
16,G13T,2.58
17,G13D,2.18
18,G13W,2.03
19,G3I,2.13
20,G3F,2.66
21,G3W,1.42
22,G3M,2.29
23,G3C,3.1
24,G3Y,1.95

row,Variant,protein stability index
1,G3Q,2.88
2,G3E,3.3
3,G3A,2.52
4,G3V,2.98
5,G3K,2.32
6,G3P,2.78
7,G3T,2.81
8,G3L,2.63
9,G3N,2.35
10,G3H,2.54
11,H17S,3.15
12,H17W,1.64
13,H17M,1.37
14,H17E,2.48
15,H17Q,2.45
16,H17Y,1.52
17,H17G,1.63
18,H17P,2.68
19,H17I,1.91
20,H17R,2.13
21,H17T,2.22
22,N14W,3.08
23,N14H,2.12
24,N14F,1.62

row,Variant,protein stability index
1,N14A,1.82
2,N14V,2.67
3,N14Y,1.62
4,N14L,1.81
5,N14D,1.87
6,N14R,2.04
7,N14E,2.47
8,N14T,1.98
9,N14G,1.54
10,N14C,1.87
11,N14P,1.91
12,G15T,1.92
13,G15F,1.49
14,G15R,1.82
15,G15D,2.3
16,G15K,2.1
17,G15M,1.52
18,G15W,1.62
19,G15A,1.59
20,G15Y,1.42
21,G15S,2.14
22,G15V,1.9
23,G15Q,1.78
24,G15L,1.73

row,Variant,protein stability index
1,G15E,2.34
2,G15N,1.52
3,V16Y,1.89
4,V16N,2.06
5,V16G,2.47
6,V16E,2.97
7,V16W,2.49
8,V16L,1.39
9,V16H,2.1
10,V16A,2.6
11,V16D,2.42
12,V16R,2.97
13,V16F,2.23
14,V16I,2.46
15,V16S,2.27
16,V16M,1.89
17,V16C,1.19
18,V16P,2.43
19,S11Q,2.06
20,S11C,1.82
21,S11P,2.3
22,S11M,2.25
23,S11D,2.52
24,S11F,1.72

row,Variant,protein stability index
1,S11R,1.97
2,S11E,2.82
3,S11Y,1.65
4,S11H,2.2
5,S11K,1.87
6,S11W,2.4
7,S11T,1.96
8,K24A,1.23
9,K24Q,2
10,K24T,3.32
11,K24M,2.42
12,K24E,1.99
13,K24D,2.4
14,K24V,1.66
15,K24N,1.82
16,K24C,1.75
17,K24S,1.66
18,K24R,1.63
19,K24I,1.42
20,K24H,1.57
21,F8H,2.65
22,F8M,3.02
23,F8A,3.78
24,F8N,3.61

row,Variant,protein stability index
1,F8C,3.02
2,F8V,2.83
3,F8Y,2.16
4,F8G,3.58
5,F8R,3.37
6,F8S,3.62
7,F8P,4.12
8,Y23W,2.62
9,Y23M,2.1
10,Y23E,2.47
11,Y23C,2.54
12,Y23R,2.17
13,Y23P,2.41
14,Y23H,2.43
15,Y23L,2.07
16,Y23V,2.23
17,Y23F,2.03
18,Y23N,2.49
19,Y23T,2.14
20,Y23S,2.99
21,G2Y,2.55
22,G2K,3.55
23,G2N,2.16
24,G2C,2.41

row,Variant,protein stability index
1,G2H,2.58
2,G2W,2.2
3,G2A,2.2
4,G2E,3.9
5,G2V,1.92
6,G2L,2.19
7,G2P,1.83
8,G2T,1.97
9,G2F,2.72
10,G2I,2.14
11,G2R,3.08
12,G5A,2.07
13,G5S,2.39
14,G5V,1.9
15,G5K,1.52
16,G5N,2.87
17,G5W,2.69
18,G5M,2.47
19,G5D,2.95
20,G5R,2
21,G5C,1.71
22,G5Q,2.42
23,G5F,1.92
24,G5H,1.92

row,Variant,protein stability index
1,G5T,2.18
2,G5Y,1.34
3,G5E,3.42
4,G5L,1.89
5,F1H,3.93
6,F1E,3.67
7,F1C,3.03
8,F1G,4.3
9,F1T,3.98
10,F1Q,4.24
11,F1I,3.5
12,F1D,4.58
13,F1A,4.18
14,F1N,4.34
15,F1P,3.9
16,F1W,2.73
17,F1M,4.04
18,P7E,2.44
19,P7H,2.13
20,P7Y,2.5
21,P7K,2.01
22,P7N,2.4
23,P7R,2.07
24,P7D,2.92

row,Variant,protein stability index
1,P7V,2.92
2,P7I,1.73
3,P7T,2.33
4,P7A,1.41
5,P7C,1.5
6,P7M,1.29
7,K22I,1.83
8,K22P,1.91
9,K22Q,2.89
10,K22N,1.8
11,K22M,1.9
12,K22V,2.24
13,K22T,1.98
14,K22W,2.1
15,K22G,1.98
16,K22Y,1.95
17,K22E,2.4
18,K22R,2.34
19,K22A,2.53
20,T4S,1.82
21,T4P,2.91
22,T4N,1.98
23,T4E,2.68
24,T4W,2.52

row,Variant,protein stability index
1,T4G,2.03
2,T4D,2.52
3,T4A,2.02
4,T4I,3.13
5,T4F,2.08
6,T4Y,1.68
7,T4H,1.9
8,T4L,1.82
9,T4K,1.72
10,V18D,3.08
11,V18L,1.71
12,V18E,2.75
13,V18P,1.97
14,V18S,2.45
15,V18Q,2.04
16,V18W,1.75
17,V18C,2.06
18,V18Y,2.19
19,V18G,2.24
20,V18N,2.31
21,V18K,1.86
22,V18H,2.06
